Experimental findings from US20250243278A1 (SHANGHAI HENLIUS BIOTECH, published 2025) are described below.

Assay [1] concerns the target T1, recombinant human B7H3 extra cellular domain (ECD) protein (human, UniProt Q5ZPR3 29-461).
T1 construct: also called h-B7H3 ECD; h-B7H3; not shown: C-terminal poly-histidine tag or Fc tag
T1 sequence: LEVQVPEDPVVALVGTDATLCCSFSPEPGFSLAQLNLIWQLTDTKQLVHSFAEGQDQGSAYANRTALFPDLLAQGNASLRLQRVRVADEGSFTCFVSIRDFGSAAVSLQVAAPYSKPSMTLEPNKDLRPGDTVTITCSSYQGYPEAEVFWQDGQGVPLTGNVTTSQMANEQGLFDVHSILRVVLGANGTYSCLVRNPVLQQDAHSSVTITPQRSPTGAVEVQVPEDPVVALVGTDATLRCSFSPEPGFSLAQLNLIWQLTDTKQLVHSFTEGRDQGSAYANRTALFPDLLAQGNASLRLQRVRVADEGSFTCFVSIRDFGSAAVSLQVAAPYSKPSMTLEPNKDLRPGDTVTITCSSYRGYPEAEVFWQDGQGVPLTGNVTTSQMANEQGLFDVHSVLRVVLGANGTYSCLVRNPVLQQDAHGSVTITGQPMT
Briefly: ELISA on human B7H3 (h-B7H3 ECD coated plates), OD450. (ELISA stands for enzyme-linked immunosorbent assay.)

The target in assay [2] is T2, human B7H3 on A498 cells (human, UniProt Q5ZPR3 29-534).
T2 construct: Endogenous B7H3 of A498 human kidney carcinoma cells; also called B7H3 positive A498 cells; human B7H3+ A498 cells
T2 sequence: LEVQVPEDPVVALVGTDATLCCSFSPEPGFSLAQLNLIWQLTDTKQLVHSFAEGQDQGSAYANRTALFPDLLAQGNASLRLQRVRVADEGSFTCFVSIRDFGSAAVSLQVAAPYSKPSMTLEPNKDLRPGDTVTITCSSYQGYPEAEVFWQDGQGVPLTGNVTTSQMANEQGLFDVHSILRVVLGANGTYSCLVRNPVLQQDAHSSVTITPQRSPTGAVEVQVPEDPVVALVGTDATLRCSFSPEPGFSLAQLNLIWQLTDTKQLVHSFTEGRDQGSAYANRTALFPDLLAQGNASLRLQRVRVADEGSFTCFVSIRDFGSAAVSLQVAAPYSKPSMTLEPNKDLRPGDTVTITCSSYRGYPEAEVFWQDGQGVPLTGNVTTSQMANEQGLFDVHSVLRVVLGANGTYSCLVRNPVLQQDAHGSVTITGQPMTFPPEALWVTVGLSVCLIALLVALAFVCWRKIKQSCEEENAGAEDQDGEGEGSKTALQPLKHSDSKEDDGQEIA
Briefly: flow cytometry, whole cell binding to B7H3+ A498 cells, MFI; fit value printed for the flat curve of the negative control. (In general: In flow cytometry, cells or beads pass a laser one at a time.)

The target of another assay is cynomolgus B7H3 (cynomolgus). Briefly: ELISA on cynomolgus B7H3, OD450.
Assay [3] has as its target T2, human B7H3 on A498 cells. Briefly: flow cytometry, whole cell binding to B7H3+ A498 cells, MFI (FITC).
Assay [4] addresses T2, human B7H3 on A498 cells. Briefly: flow cytometry, whole cell binding to B7H3+ A498 cells, MFI.
Assay [5] has as its target T2, human B7H3 on A498 cells. Briefly: flow cytometry, whole cell binding to B7H3+ A498 cells, MFI (FITC). This is another data set of the same source.

B1: 5H8 VHH (VHH)
VHH: QVKLEESGGGQVQAGDSRTLSCVASGRTFSSDSMAWFREAPGKARGFVAVVSRSAGSTWYEDSVKGRFTISRDNAKNTVYLQMNSLKPEDTAVYYCAATDIATMPWLMVSSRYDYWGQGTQVTVSS
notes: VHH secreted into SS320 supernatant from phagemid pADL-23c, as screened by ELISA
With B1, the EC50 (read off the curve) (commonly the concentration giving half of the maximal effect) in assay [1] was about 0.08 µg/mL.

B2: Reference Ab 4 (antibody, V domains shown)
VH: QVQLQQPGAELVKPGASVKLSCKASGYSFTSYWMHWVKQRPGQGLEWIGMIHPNSGSNNYNEKFKSKATLTVDKSSNTAYMQLSSLTSEDSAVYYCARRLGLHFDYWGQGTTLTVSS
VL: DIVMTQSQKFMSTPVGDRVSITCKASQNVGTAVAWYQQKPGQSPKLLIYSASNRYTGVPDRFTGSGSGTDFTLTISNMQSEDLADYFCQQYSSYPYTFGGGTKLEIK
For B2, in the assay with human B7H3 on A498 cells [2], the EC50 (commonly the concentration giving half of the maximal effect) amounted to 40.3 nM.

B3: 14C4 VHH (VHH)
VHH: QVQLVESGGGVVQAGGSLRLSCAASGRTFSSYGMGWFRQAPRKARGFVGAVTSAGSTWYEDSVKGRFTISRDNAKNTVYLQMNSLKPEDTAVYYCAATTIATMPWLMVSSRYAYWGQGTQVTVSS
notes: VHH secreted into SS320 supernatant, as screened by ELISA
B3: the “EC50 (read off the curve)” value with cynomolgus B7H3 is about 0.06 µg/mL.

B4: Reference Ab 2 (an h1702 analog) (antibody, V domains shown)
VH: QVQLQQPGAELVKPGASVKLSCKASGYTFTSYWMHWVKQRPGQGLEWIGMIHPDSGTTNYNEKFRSKATLTVDKSSSTAYMQLSSLTSEDSAVYYCAVYYGSTYWYFDVWGTGTTVTVSS
VL: DVVMTQTPLSLPVSLGDQAYISCRSSQSLVHINGNTYLHWYRQKPGQSPKLLIYKVSNRFSGVPDRFSGSGSGTDFTLKISRVEAEDLGVYFCSQSTHFPFTFGSGTKLEIK
The molecule B4 displayed an EC50 with human B7H3 on A498 cells [3] of 0.85 nM.

B5: 19c10-V2 (Fc fusion)
chain: EVQLVESGGGLVQPGGSLRLSCAASGSTFSKYAMGWFRQAPRKARGFVGAVTSAGSTWYADSVKGRFTISRDNSKNTLYLQMNSLRAEDTAVYYCAATTIATMPWLMVSSRYAYWGQGTLVTVSS
notes: Humanized FR1, FR3 and FR4; also called humanized 19c10 clone; not shown: purified by protein A and detected with anti-human IgG, so probably a human Fc
Molecule B5 came in with an EC50 in the assay with human B7H3 on A498 cells [4] of 0.537 nM.

B6: 19c10-V3 (Fc fusion, not shown: a dimerising Fc or GST)
chain: EVQLVESGGGLVQPGGSLRLSCAASGSTFSKYAMGWFRQAPGKARGFVGAVTSAGSTWYADSVKGRFTISRDNSKNTLYLQMNSLRAEDTAVYYCAATTIATMPWLMVSSRYAYWGQGTLVTVSS
notes: FR2 humanized further from 19c10-V2; detected with anti-human IgG; also called humanized 19c10 clone
In the case of B6, the half-maximal effective concentration (EC50) with human B7H3 on A498 cells [4] is 1.69 nM; with human B7H3 on A498 cells [5], 5.52 nM.
